# Values quoted from earlier work in publication PMC5671728.
# pKd: −log10 of the molar value. “And” between values parts separate entries of the source, which are not always exact repeats. Identical values can stand only once.
# How the values were obtained:
# [1] = target: Insulin receptor isoform A (Homo sapiens) (UniProt P06213)
# [2] = target: Insulin receptor isoform B (Homo sapiens) (UniProt P06213)
# Sequence of Insulin (P01308 90-110): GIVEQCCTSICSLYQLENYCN
substance,measurement,setting,value
Insulin (from UniProt P01308),pKd,[1],9.04 and 8.68
same,pKd,[2],8.74 and 8.81
